B1: MBP-Krr1, recombinant (natural protein, S. cerevisiae, UniProt P25586 1-316, looked up)
chain: MVSTHNRDKPWDTDDIDKWKIEEFKEEDNASGQPFAEESSFMTLFPKYRESYLKTIWNDVTRALDKHNIACVLDLVEGSMTVKTTRKTYDPAIILKARDLIKLLARSVPFPQAVKILQDDMACDVIKIGNFVTNKERFVKRRQRLVGPNGNTLKALELLTKCYILVQGNTVSAMGPFKGLKEVRRVVEDCMKNIHPIYHIKELMIKRELAKRPELANEDWSRFLPMFKKRNVARKKPKKIRNVEKKVYTPFPPAQLPRKVDLEIESGEYFLSKREKQMKKLNEQKEKQMEREIERQEERAKDFIAPEEEAYKPNQN
B2: MBP-Rrp36, recombinant (natural protein, S. cerevisiae, UniProt Q12481 1-300, looked up)
chain: MSYYFKNLKPDLNSDVEEDDGNLLESIMANKSKREIDEQESSDDELKTLSFGSLKKAETVIDEEDFKDTKPVHKKPITTTYREESFDEDEDSEDQSDEDAGFFEEDSEDETHHGQKVPKKKSKHAPVEQSSKKRVPRVRNIPGLEIPRNKRSNLYQDIRFDKSTGKALDSSIIRKRYQFLDEYREKEIDELQKLLQERKFLSKIDQGEREEMEQRLKSMKSRLQSMKNKDLEREILKEYENDMNKNNNTRYHLKKSEKRKVVQKWKFDHMKAKQREKVMERKRKKRLGKEFKQFEFHNRR

Biological target: Rrp5 full length, recombinant (Rrp5_FL) (S. cerevisiae, UniProt Q05022 1-1729)
Sequence (Q05022 whole entry): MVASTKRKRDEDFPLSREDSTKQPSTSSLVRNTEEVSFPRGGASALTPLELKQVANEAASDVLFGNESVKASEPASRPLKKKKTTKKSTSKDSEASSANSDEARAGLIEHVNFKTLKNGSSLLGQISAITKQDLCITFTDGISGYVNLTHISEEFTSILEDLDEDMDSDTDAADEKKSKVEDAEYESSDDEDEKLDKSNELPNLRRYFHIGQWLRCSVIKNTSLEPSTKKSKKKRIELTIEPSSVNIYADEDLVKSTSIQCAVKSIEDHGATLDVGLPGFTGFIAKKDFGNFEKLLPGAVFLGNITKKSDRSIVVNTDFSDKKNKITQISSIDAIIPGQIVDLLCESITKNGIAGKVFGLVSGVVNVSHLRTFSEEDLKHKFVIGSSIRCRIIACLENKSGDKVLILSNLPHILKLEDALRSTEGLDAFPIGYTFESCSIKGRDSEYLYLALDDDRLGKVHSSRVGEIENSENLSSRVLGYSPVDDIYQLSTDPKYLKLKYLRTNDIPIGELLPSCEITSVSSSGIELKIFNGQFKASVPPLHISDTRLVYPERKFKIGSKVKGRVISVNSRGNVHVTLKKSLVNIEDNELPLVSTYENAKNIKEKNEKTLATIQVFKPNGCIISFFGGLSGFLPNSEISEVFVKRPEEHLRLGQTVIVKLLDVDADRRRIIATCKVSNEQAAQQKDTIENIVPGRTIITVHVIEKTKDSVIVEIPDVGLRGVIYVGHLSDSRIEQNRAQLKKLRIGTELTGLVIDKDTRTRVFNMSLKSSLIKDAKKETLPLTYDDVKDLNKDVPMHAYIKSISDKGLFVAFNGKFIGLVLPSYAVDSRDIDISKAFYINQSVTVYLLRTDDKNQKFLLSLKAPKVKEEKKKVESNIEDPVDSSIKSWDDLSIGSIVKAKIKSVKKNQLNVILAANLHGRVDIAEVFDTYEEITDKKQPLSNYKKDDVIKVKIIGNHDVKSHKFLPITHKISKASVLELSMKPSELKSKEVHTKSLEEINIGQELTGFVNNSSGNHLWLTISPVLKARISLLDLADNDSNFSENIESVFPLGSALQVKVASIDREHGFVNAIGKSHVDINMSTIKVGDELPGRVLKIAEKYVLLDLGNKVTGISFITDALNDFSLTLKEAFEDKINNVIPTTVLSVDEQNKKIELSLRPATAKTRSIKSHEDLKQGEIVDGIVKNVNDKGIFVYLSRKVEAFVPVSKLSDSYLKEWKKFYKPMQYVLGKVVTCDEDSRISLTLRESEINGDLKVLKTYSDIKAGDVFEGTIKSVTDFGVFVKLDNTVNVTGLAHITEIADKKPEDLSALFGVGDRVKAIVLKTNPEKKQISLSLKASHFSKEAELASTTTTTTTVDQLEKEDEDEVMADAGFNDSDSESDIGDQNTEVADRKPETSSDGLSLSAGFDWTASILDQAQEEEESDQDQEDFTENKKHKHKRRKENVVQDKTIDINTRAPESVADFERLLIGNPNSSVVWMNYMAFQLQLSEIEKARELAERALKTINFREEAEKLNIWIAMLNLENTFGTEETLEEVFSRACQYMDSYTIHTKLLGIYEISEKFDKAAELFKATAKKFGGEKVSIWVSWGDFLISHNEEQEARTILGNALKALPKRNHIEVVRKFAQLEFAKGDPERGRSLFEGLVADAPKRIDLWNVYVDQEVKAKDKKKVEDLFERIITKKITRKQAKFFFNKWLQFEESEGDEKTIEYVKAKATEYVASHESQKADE
Assay: pull-down

Row | Binder | binding result
1 | B1 | binds
2 | B2 | binds
